Measurements as given in the supplement of paper PMC10065799, “High-throughput profiling of sequence recognition by tyrosine kinases and SH2 domains using bacterial peptide display” (eLife, 2023).
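Also: 11-residue human phosphosite peptides and single-mutation variants displayed on the E. coli surface, counted by deep sequencing, each peptide's frequency after selection divided by its frequency in the unselected input library; frequency after pTyr selection over input frequency; kinase dosed for 20-30% of maximal phosphorylation in three min.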

The sequences below were run on Fer (mouse) (assay: phosphorylation enrichment, bacterial display (enrichment ratio); higher = better substrate or ligand; peptides without Tyr show the background).
For YYHCTYKKRMI [CLEC12A_Y242], the phosphorylation enrichment was 0.558.
Work on RLLVVYPWTER [HBB_Y36_Q40E] yielded a phosphorylation enrichment of 0.37.
YSMGCYEISLG [HMGCL_Y198] showed a phosphorylation enrichment of 2.77.
GADAIYDHINE [UQCR10_Y44] was tested, and the phosphorylation enrichment was 2.82.
For LLKKIYLMLDN [STAT1_Y203_M202I], the phosphorylation enrichment was 0.67.
GASWRYRSGVS [NEU1_Y242_G243R] gave a phosphorylation enrichment of 0.474.
Work on IRSGIYYKPES [L2HGDH_Y102_H98R] yielded a phosphorylation enrichment of 0.465.
ICANKYMVKSC [RPL10_Y75] showed a phosphorylation enrichment of 0.464.
For TSNNPYFRDQA [RPGRIP1_Y846_A841T], the phosphorylation enrichment was 0.396.
Sequence AFLQTYSHEVS [PCDHGA5_Y753] has a phosphorylation enrichment of 0.531.
In the case of HKLSSYEYDFE [BTK_Y40_Y39S], the phosphorylation enrichment is reported as 1.03.
SGEKPYKCSEC [ZNF543_Y283] showed a phosphorylation enrichment of 0.456.
With WRPFGYPRCRR [BCS1L_Y181_R184C] the phosphorylation enrichment was 0.447.
SLAARYYNWVC [FLT4_Y1230_S1235C] was tested, and the phosphorylation enrichment was 0.777.
FAAAGYGSLEA [EPHA10_Y959] was tested, and the phosphorylation enrichment was 0.487.
With RENGPYYASYP [GDAP2_Y487_T489A] the phosphorylation enrichment was 0.691.
PYTDPYYDYEI [ZC3H18_Y371_A368T] showed a phosphorylation enrichment of 4.55.
GPQSLYNGLVA [UCP2_Y79_R76Q] was tested, and the phosphorylation enrichment was 0.552.
With KWRGQYDVAIE [BTK_Y425_K430E] the phosphorylation enrichment was 0.505.
LQTFHYHGHSM [PDHA1_Y289_R288H_YF] showed a phosphorylation enrichment of 0.435.
For GSCQEYTGAPF [NAXD_Y85_G81S_YF], the phosphorylation enrichment was 0.466.
With AEPDIYQEKLS [USP54_Y1233] the phosphorylation enrichment was 0.485.
With FTNRSYDLDYD [MYC_Y12_N11S] the phosphorylation enrichment was 0.488.
In the case of GPCKAYELSQR [SETX_Y1297_R1294C], the phosphorylation enrichment is reported as 0.496.
GEPLSYTRFSL [TFRC_Y20] gave a phosphorylation enrichment of 0.554.
Sequence YVPSNYVAEDR [FRK_Y104_I100V] has a phosphorylation enrichment of 0.497.
Sequence TRSFDYMEGED [FGF7_Y58_G62E_YF] has a phosphorylation enrichment of 0.546.
MSFDRYMAVCH [OR2A5_Y123_I126V_YF] showed a phosphorylation enrichment of 0.558.
ENAGYYFRISA was tested, and the phosphorylation enrichment was 0.523.
AKKVFYMIETR [SHH_Y253_V254M] showed a phosphorylation enrichment of 0.561.
In the case of KIIATYRLCSE [DNAH3_Y1586_V1583I], the phosphorylation enrichment is reported as 0.477.
For TFVKSYTIHFS [F5_Y2153_M2148T_YF], the phosphorylation enrichment was 0.521.
With NSRFTYKLEVK [USH2A_Y3747_YF] the phosphorylation enrichment was 0.599.

The sequences below were run against Jak2 (UniProt O60674) in the same assay as above.
Sequence of Jak2 (O60674 whole entry, looked up): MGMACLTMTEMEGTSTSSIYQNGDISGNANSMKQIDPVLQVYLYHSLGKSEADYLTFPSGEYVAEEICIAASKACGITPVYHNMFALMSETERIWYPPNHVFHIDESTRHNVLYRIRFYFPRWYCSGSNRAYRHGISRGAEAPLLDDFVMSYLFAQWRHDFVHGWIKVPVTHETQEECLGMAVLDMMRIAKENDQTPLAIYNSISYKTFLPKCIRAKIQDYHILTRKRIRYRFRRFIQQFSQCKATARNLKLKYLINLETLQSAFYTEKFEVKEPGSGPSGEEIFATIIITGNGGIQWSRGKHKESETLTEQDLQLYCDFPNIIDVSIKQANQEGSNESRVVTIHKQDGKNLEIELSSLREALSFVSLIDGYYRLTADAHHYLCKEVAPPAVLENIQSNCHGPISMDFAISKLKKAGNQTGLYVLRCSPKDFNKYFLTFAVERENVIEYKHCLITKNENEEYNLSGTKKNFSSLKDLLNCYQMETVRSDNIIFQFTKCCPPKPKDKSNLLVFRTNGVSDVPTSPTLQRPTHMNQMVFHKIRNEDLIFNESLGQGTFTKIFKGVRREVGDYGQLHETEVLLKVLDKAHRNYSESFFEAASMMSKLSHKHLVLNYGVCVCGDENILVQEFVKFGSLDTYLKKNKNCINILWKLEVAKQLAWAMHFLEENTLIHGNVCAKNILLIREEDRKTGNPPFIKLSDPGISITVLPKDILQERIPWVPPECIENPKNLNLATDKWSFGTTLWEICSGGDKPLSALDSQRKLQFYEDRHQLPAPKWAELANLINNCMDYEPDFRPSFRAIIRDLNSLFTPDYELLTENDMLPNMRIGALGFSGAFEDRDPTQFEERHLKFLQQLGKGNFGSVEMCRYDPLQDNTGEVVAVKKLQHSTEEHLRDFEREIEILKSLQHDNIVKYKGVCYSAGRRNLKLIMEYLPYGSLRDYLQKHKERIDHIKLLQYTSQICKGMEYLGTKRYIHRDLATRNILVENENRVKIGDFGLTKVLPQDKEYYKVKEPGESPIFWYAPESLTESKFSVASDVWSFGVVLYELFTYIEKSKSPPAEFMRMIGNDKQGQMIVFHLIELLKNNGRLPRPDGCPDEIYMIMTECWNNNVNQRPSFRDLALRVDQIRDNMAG
YYHCTYKKRMI [CLEC12A_Y242] showed a phosphorylation enrichment of 1.29.
RLLVVYPWTER [HBB_Y36_Q40E] was tested, and the phosphorylation enrichment was 1.03.
For YSMGCYEISLG [HMGCL_Y198], the phosphorylation enrichment was 1.38.
Work on GADAIYDHINE [UQCR10_Y44] yielded a phosphorylation enrichment of 0.777.
LLKKIYLMLDN [STAT1_Y203_M202I] was tested, and the phosphorylation enrichment was 2.05.
With GASWRYRSGVS [NEU1_Y242_G243R] the phosphorylation enrichment was 0.587.
IRSGIYYKPES [L2HGDH_Y102_H98R] gave a phosphorylation enrichment of 1.26.
ICANKYMVKSC [RPL10_Y75] was tested, and the phosphorylation enrichment was 0.735.
With TSNNPYFRDQA [RPGRIP1_Y846_A841T] the phosphorylation enrichment was 0.901.
For AFLQTYSHEVS [PCDHGA5_Y753], the phosphorylation enrichment was 0.957.
In the case of HKLSSYEYDFE [BTK_Y40_Y39S], the phosphorylation enrichment is reported as 1.38.
For SGEKPYKCSEC [ZNF543_Y283], the phosphorylation enrichment was 0.765.
WRPFGYPRCRR [BCS1L_Y181_R184C] showed a phosphorylation enrichment of 0.485.
Sequence SLAARYYNWVC [FLT4_Y1230_S1235C] has a phosphorylation enrichment of 1.39.
For FAAAGYGSLEA [EPHA10_Y959], the phosphorylation enrichment was 0.675.
Sequence RENGPYYASYP [GDAP2_Y487_T489A] has a phosphorylation enrichment of 0.661.
Work on PYTDPYYDYEI [ZC3H18_Y371_A368T] yielded a phosphorylation enrichment of 1.88.
GPQSLYNGLVA [UCP2_Y79_R76Q] gave a phosphorylation enrichment of 0.744.
KWRGQYDVAIE [BTK_Y425_K430E] was tested, and the phosphorylation enrichment was 0.708.
In the case of LQTFHYHGHSM [PDHA1_Y289_R288H_YF], the phosphorylation enrichment is reported as 0.641.
Sequence GSCQEYTGAPF [NAXD_Y85_G81S_YF] has a phosphorylation enrichment of 0.98.
With AEPDIYQEKLS [USP54_Y1233] the phosphorylation enrichment was 1.01.
FTNRSYDLDYD [MYC_Y12_N11S] was tested, and the phosphorylation enrichment was 0.804.
GPCKAYELSQR [SETX_Y1297_R1294C] showed a phosphorylation enrichment of 0.66.
Work on GEPLSYTRFSL [TFRC_Y20] yielded a phosphorylation enrichment of 2.21.
With YVPSNYVAEDR [FRK_Y104_I100V] the phosphorylation enrichment was 0.655.
TRSFDYMEGED [FGF7_Y58_G62E_YF] showed a phosphorylation enrichment of 1.3.
In the case of MSFDRYMAVCH [OR2A5_Y123_I126V_YF], the phosphorylation enrichment is reported as 0.927.
ENAGYYFRISA showed a phosphorylation enrichment of 1.36.
With AKKVFYMIETR [SHH_Y253_V254M] the phosphorylation enrichment was 1.02.
Work on KIIATYRLCSE [DNAH3_Y1586_V1583I] yielded a phosphorylation enrichment of 0.808.
With TFVKSYTIHFS [F5_Y2153_M2148T_YF] the phosphorylation enrichment was 1.28.
In the case of NSRFTYKLEVK [USH2A_Y3747_YF], the phosphorylation enrichment is reported as 1.25.

Each sequence was assayed against EPHB2 (UniProt P29323) in the same assay as above.
Sequence of EPHB2 (P29323 whole entry, looked up): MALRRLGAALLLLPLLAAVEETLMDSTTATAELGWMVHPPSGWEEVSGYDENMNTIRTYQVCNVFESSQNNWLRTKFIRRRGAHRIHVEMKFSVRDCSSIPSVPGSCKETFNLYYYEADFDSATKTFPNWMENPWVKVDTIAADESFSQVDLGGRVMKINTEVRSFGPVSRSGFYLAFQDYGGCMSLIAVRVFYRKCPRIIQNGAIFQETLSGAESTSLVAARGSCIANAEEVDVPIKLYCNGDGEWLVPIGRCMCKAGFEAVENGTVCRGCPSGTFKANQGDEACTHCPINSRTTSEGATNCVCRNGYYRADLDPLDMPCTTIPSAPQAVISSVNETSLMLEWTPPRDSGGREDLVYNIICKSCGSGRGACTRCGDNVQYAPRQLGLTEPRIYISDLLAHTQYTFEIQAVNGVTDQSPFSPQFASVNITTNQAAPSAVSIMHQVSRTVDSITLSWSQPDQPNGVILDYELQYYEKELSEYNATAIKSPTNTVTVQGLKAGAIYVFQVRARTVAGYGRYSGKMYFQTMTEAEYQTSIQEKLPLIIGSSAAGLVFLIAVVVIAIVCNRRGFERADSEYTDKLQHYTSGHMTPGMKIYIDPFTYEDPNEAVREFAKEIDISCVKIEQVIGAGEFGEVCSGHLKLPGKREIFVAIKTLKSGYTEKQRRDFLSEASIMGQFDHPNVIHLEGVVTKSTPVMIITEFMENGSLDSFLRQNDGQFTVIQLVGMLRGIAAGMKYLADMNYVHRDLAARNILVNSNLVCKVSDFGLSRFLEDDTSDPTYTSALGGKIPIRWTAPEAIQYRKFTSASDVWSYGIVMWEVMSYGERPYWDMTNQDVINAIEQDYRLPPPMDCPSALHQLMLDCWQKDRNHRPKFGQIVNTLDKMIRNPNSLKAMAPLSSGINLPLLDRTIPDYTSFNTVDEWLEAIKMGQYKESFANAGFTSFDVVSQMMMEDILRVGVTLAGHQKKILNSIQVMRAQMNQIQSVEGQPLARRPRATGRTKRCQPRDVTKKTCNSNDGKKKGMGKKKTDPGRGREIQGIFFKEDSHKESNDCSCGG
With YYHCTYKKRMI [CLEC12A_Y242] the phosphorylation enrichment was 0.601.
Sequence RLLVVYPWTER [HBB_Y36_Q40E] has a phosphorylation enrichment of 0.572.
YSMGCYEISLG [HMGCL_Y198] was tested, and the phosphorylation enrichment was 1.18.
With GADAIYDHINE [UQCR10_Y44] the phosphorylation enrichment was 1.03.
With LLKKIYLMLDN [STAT1_Y203_M202I] the phosphorylation enrichment was 0.817.
GASWRYRSGVS [NEU1_Y242_G243R] gave a phosphorylation enrichment of 0.608.
IRSGIYYKPES [L2HGDH_Y102_H98R] gave a phosphorylation enrichment of 0.753.
With ICANKYMVKSC [RPL10_Y75] the phosphorylation enrichment was 0.445.
In the case of TSNNPYFRDQA [RPGRIP1_Y846_A841T], the phosphorylation enrichment is reported as 0.374.
In the case of AFLQTYSHEVS [PCDHGA5_Y753], the phosphorylation enrichment is reported as 0.64.
HKLSSYEYDFE [BTK_Y40_Y39S] was tested, and the phosphorylation enrichment was 0.789.
SGEKPYKCSEC [ZNF543_Y283] showed a phosphorylation enrichment of 0.502.
For WRPFGYPRCRR [BCS1L_Y181_R184C], the phosphorylation enrichment was 0.478.
SLAARYYNWVC [FLT4_Y1230_S1235C] showed a phosphorylation enrichment of 0.883.
Work on FAAAGYGSLEA [EPHA10_Y959] yielded a phosphorylation enrichment of 0.485.
In the case of RENGPYYASYP [GDAP2_Y487_T489A], the phosphorylation enrichment is reported as 5.74.
PYTDPYYDYEI [ZC3H18_Y371_A368T] gave a phosphorylation enrichment of 3.3.
Work on GPQSLYNGLVA [UCP2_Y79_R76Q] yielded a phosphorylation enrichment of 0.551.
For KWRGQYDVAIE [BTK_Y425_K430E], the phosphorylation enrichment was 0.531.
LQTFHYHGHSM [PDHA1_Y289_R288H_YF] gave a phosphorylation enrichment of 0.448.
Work on GSCQEYTGAPF [NAXD_Y85_G81S_YF] yielded a phosphorylation enrichment of 0.496.
With AEPDIYQEKLS [USP54_Y1233] the phosphorylation enrichment was 0.508.
FTNRSYDLDYD [MYC_Y12_N11S] was tested, and the phosphorylation enrichment was 0.841.
Work on GPCKAYELSQR [SETX_Y1297_R1294C] yielded a phosphorylation enrichment of 0.63.
GEPLSYTRFSL [TFRC_Y20] gave a phosphorylation enrichment of 0.455.
With YVPSNYVAEDR [FRK_Y104_I100V] the phosphorylation enrichment was 0.424.
Sequence TRSFDYMEGED [FGF7_Y58_G62E_YF] has a phosphorylation enrichment of 1.04.
MSFDRYMAVCH [OR2A5_Y123_I126V_YF] gave a phosphorylation enrichment of 0.838.
With ENAGYYFRISA the phosphorylation enrichment was 0.781.
AKKVFYMIETR [SHH_Y253_V254M] was tested, and the phosphorylation enrichment was 0.622.
Sequence KIIATYRLCSE [DNAH3_Y1586_V1583I] has a phosphorylation enrichment of 0.51.
With TFVKSYTIHFS [F5_Y2153_M2148T_YF] the phosphorylation enrichment was 0.468.
In the case of NSRFTYKLEVK [USH2A_Y3747_YF], the phosphorylation enrichment is reported as 0.545.

These sequences were tested against FGFR3 (UniProt P22607) in the same assay as above.
Sequence of FGFR3 (P22607 whole entry, looked up): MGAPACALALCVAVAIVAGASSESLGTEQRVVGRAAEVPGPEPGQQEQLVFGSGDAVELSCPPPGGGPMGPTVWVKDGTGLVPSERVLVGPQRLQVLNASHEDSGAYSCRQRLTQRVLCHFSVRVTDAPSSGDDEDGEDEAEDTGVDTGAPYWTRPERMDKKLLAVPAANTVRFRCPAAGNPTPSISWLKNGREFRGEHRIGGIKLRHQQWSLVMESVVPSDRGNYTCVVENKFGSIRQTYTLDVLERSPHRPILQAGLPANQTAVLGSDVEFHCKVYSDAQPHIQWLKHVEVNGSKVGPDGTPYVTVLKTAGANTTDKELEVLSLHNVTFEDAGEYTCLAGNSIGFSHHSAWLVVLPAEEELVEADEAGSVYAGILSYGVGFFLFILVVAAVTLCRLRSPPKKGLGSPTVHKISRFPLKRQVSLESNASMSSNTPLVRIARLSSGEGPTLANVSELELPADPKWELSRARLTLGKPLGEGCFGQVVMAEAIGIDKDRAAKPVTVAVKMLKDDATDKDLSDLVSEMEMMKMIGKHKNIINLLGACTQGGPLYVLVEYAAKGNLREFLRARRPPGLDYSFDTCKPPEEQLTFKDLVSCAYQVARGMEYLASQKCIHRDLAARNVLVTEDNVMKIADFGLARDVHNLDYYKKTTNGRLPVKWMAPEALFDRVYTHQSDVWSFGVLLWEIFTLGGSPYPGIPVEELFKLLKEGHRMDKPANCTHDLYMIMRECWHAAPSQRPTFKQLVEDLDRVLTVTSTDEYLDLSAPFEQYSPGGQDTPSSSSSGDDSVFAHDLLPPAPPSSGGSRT
YYHCTYKKRMI [CLEC12A_Y242] gave a phosphorylation enrichment of 3.12.
RLLVVYPWTER [HBB_Y36_Q40E] was tested, and the phosphorylation enrichment was 0.58.
Work on YSMGCYEISLG [HMGCL_Y198] yielded a phosphorylation enrichment of 0.817.
In the case of GADAIYDHINE [UQCR10_Y44], the phosphorylation enrichment is reported as 0.563.
LLKKIYLMLDN [STAT1_Y203_M202I] showed a phosphorylation enrichment of 1.31.
Sequence GASWRYRSGVS [NEU1_Y242_G243R] has a phosphorylation enrichment of 0.511.
IRSGIYYKPES [L2HGDH_Y102_H98R] showed a phosphorylation enrichment of 0.735.
Work on ICANKYMVKSC [RPL10_Y75] yielded a phosphorylation enrichment of 0.514.
Work on TSNNPYFRDQA [RPGRIP1_Y846_A841T] yielded a phosphorylation enrichment of 0.544.
In the case of AFLQTYSHEVS [PCDHGA5_Y753], the phosphorylation enrichment is reported as 0.683.
In the case of HKLSSYEYDFE [BTK_Y40_Y39S], the phosphorylation enrichment is reported as 1.04.
Sequence SGEKPYKCSEC [ZNF543_Y283] has a phosphorylation enrichment of 0.551.
In the case of WRPFGYPRCRR [BCS1L_Y181_R184C], the phosphorylation enrichment is reported as 0.459.
Sequence SLAARYYNWVC [FLT4_Y1230_S1235C] has a phosphorylation enrichment of 3.95.
FAAAGYGSLEA [EPHA10_Y959] showed a phosphorylation enrichment of 0.535.
RENGPYYASYP [GDAP2_Y487_T489A] was tested, and the phosphorylation enrichment was 1.92.
PYTDPYYDYEI [ZC3H18_Y371_A368T] was tested, and the phosphorylation enrichment was 14.7.
GPQSLYNGLVA [UCP2_Y79_R76Q] showed a phosphorylation enrichment of 0.515.
With KWRGQYDVAIE [BTK_Y425_K430E] the phosphorylation enrichment was 0.481.
In the case of LQTFHYHGHSM [PDHA1_Y289_R288H_YF], the phosphorylation enrichment is reported as 0.536.
GSCQEYTGAPF [NAXD_Y85_G81S_YF] gave a phosphorylation enrichment of 0.798.
Work on AEPDIYQEKLS [USP54_Y1233] yielded a phosphorylation enrichment of 0.623.
With FTNRSYDLDYD [MYC_Y12_N11S] the phosphorylation enrichment was 0.745.
GPCKAYELSQR [SETX_Y1297_R1294C] showed a phosphorylation enrichment of 0.547.
GEPLSYTRFSL [TFRC_Y20] was tested, and the phosphorylation enrichment was 0.545.
Work on YVPSNYVAEDR [FRK_Y104_I100V] yielded a phosphorylation enrichment of 0.632.
Sequence TRSFDYMEGED [FGF7_Y58_G62E_YF] has a phosphorylation enrichment of 0.788.
With MSFDRYMAVCH [OR2A5_Y123_I126V_YF] the phosphorylation enrichment was 0.738.
ENAGYYFRISA was tested, and the phosphorylation enrichment was 0.852.
AKKVFYMIETR [SHH_Y253_V254M] showed a phosphorylation enrichment of 0.881.
KIIATYRLCSE [DNAH3_Y1586_V1583I] showed a phosphorylation enrichment of 0.678.
Sequence TFVKSYTIHFS [F5_Y2153_M2148T_YF] has a phosphorylation enrichment of 0.899.
NSRFTYKLEVK [USH2A_Y3747_YF] gave a phosphorylation enrichment of 0.761.
